Read-outs that look alike come from different tables or passages of the source. Each block holds one binder with its values, some of them ahead of it.
Assays:
human IL-6 [1] = biological target: T1, human IL-6 (human, UniProt P05231 30-212); assay: cell-based or functional assay
[2] = biological target: T2, human dimeric IL-23 (eBiosciences 34-8239) (human, UniProt P29460 23-328; Q9NPF7 20-189); assay: cell-based or functional assay
T2 sequence (looked up) 1: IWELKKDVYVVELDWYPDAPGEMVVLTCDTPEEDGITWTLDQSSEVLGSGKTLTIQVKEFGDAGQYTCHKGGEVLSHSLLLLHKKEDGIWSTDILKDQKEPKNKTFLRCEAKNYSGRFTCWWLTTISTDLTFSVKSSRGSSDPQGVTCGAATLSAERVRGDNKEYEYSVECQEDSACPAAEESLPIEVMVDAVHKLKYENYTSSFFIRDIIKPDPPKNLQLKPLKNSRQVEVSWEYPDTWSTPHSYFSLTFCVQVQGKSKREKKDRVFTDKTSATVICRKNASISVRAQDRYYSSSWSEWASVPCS
T2 sequence (looked up) 2: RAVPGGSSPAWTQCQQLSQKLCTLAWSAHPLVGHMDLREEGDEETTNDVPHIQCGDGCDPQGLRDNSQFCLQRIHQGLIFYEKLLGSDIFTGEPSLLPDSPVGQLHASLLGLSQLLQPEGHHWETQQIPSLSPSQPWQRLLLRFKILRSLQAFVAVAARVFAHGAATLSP

human IL-6 [3] = biological target: T1, human IL-6; assay: cell-based or functional assay; remark: listed apart in the source
human IL-6 [4] = biological target: T1, human IL-6; assay: SPR (SensiQ Pioneer), mAb captured on protein G, IL-6 as analyte (3×FLAG-IL-6 or IL-6 CYT-213, 1-100 nM), 25 C, 1:1 model
Experimental: Equilibrium constants for rabbit human chimeric mAbs were determined by binding the mAb to the protein G coated chip followed by binding of each analyte (IL-6 or IL-23) to its respective mAb. In order to minimize mass transfer effects, the surface densities of the mAbs for each analyte were adjusted so that as analyte binding approached saturation its corresponding RU fell between 200 and 300. […] For each binding and dissociation cycle the chip surface was regenerated with 15 uL of 20 mM NaOH (5671-02, Mallinckrodt Baker, Philliphsburg, N.J.). The assay temperature was maintained at 25° C. with an analyte flow rate of 50 μL/min and included a 2 minute association phase and 10-30 minute dissociation phase. The on/off rates (kₐ/kd) and dissociation constants (KD) were determined using the format described above along with pseudo-first-order 1:1 interaction model software (Qdat, ICx Nomadics, Stillwater, Okla.).

EC50, inhibition of IL-6 induced B9 cell proliferation (human IL-6 [1]): 0.51 ng/mL
B1: 8C8 rabbit scFv (scFv, V domains shown)
VH: QSVEESGGRLVAPGGSLTLTCKASGFSLSSSGVSWVRQAPGKGLEWIGYVSIADTISYANWAKGRFTISKTSSTTVDLEMTSLTTEDTATYFCVRGFITYSGVLWGPGTLVTVSS
VL: QVLTQTPASVSAAVGGTVTISCQSSQNVYSNAFLSWYQQKPGQPPKLLIYKASKLASGVPSRFSGSGSGTQFTLTISGVQCDDAATYYCAGEYEGGIGTFGGGTEVVVVR

EC50: concentration necessary to inhibit bioactivity of 50 pg/ml of IL-6 [2]: 0.767 ng/mL
B2: 14B5 chimeric mAb (antibody, V domains shown)
VH: QSVEESGGRLVTPGTPLTLTCAVSGFSLSDYTMIWVRQAPGEGLEWIGIISSSGNTYYATWVKGRFTISKTSTTVDLKMISPTTEDTATYFCARGSGAYISDYFNVWGPGTLVTVSS
VL: FELTQTPSSVEAAVEGTVTIKCQASQSIDSWLSWYQQKPGQPPKLLIYAASKLATGVPSRFSGSGSGTQFTLTIGDLECADAATYYCQSYYDVNAGYGFGGGTEVVVVR

EC50, inhibition of IL-6 induced B9 cell proliferation (human IL-6 [3]): 0.065 ng/mL
B3: 28D2 chimeric mAb (antibody, V domains shown)
VH: QSLGESGGRLVTPGTPLTLTCTVSGLSLSKNAIAWVRQAPGKGLEWIGIIYAGGATTYASWAKGRFTISKSSTTVDLKITSPTTVDTATYFCAREYAGDSYYTGYTQLDLWGPGTLVTVSS
VL: ALVMTQTPASVSAAVGGTVTINCQASEDLFSSLAWFQQKPGQPPKLLIYSASTLASGVPSRFSGSGSGTEFTLTISDLECADAATYYCLGLYYYLTPDPIYGFGGGTKVVVV

EC50, inhibition of IL-6 induced B9 cell proliferation (human IL-6 [3]): 0.4 ng/mL | Kd (human IL-6 [4]): 0.042 nM | koff (human IL-6 [4]): 3.17e-05 s⁻¹ | kon (human IL-6 [4]): 765000 M⁻¹ s⁻¹
B4: 9C8 chimeric mAb (antibody, V domains shown)
VH: QSVEESGGRLVTPGTPLTLTCTVSGIDLSSYDMSWVRQAPGKGLEWIGYIYTDSSTYYANWAKGRFTISKTSTTVDLKMTSLTTEDTATYFCAKGSTDYAFDTRLDLWGPGTLVTVS
VL: AYDMTQTPASVEVAMGGTVTIKCQASQSISNELSWYQQKPGQPPKLLIYRTSTLASGVSSRFKGSGSGTEYTLTISGVECADAATYYCQQGYNSNDVDNVFGGGTKVVVVR
notes: Rabbit/human chimeric IgG (human IgG1, kappa); HEK293; also called 9C8 clone

EC50, neutralization of IL-6, first batch (human IL-6 [1]): 1.67 ng/mL | EC50, neutralization of IL-6, second batch (human IL-6 [1]): 1.69 ng/mL | EC50, neutralization of IL-23, first batch [2]: 4.96 ng/mL | EC50, neutralization of IL-23, second batch [2]: 3.25 ng/mL
B5: 13A8n-PEG20-31A12c bispecific (bispecific antibody)
scFv 1: DIQLTQSPSFLSASVGDRVTITCQASQSISNELSWYQQKPGKAPKLLIYRASTLTSGVPSRFSGSGSGTEFTLTISSLQPEDFATYYCQQGYNSNDVDNVFGGGTKVEIKGGGGSGGGGSGGGGSGGGGSEVQLVESGGGLVQPGGSLRLSCTVSGIDLSSYDLSWVRQAPGKGLEWVGYIYTDSSTWYANWAKGRFTISRDNSKNTLYLQLNSLRAEDTAVYYCARGSTDYAFDTRLDLWGQGTLVTVSS
scFv 2: DIQLTQSPSFLSASVGDRVTITCQASEDIESYLAWYQQKPGKAPKLLIYSASTLTSGVPSRFSGSGSGTEFTLTISSLQPEDFATYYCLGADDTTTVFGGGTKVEIKGGGGSGGGGSGGGGSGGGGSEVQLVESGGGLVQPGGSLRLSCTASGFSLSSYWLTWVRQAPGKGLEWVGTIATSSTYYASWAKGRFTISRDNSKNTLYLQLNSLRAEDTAVYYCARGLTTDYDLDLWGQGTLVTVSS
modifications: C-terminal azidohomoalanine (Aha) joined through a linear 20 kDa PEG to the Aha of the other scFv; N-terminal azidohomoalanine (Aha) joined through a linear 20 kDa PEG to the Aha of the other scFv

Source: patent publication US20160194391A1 (AstraZeneca / MedImmune, published 2016)
